3 molecules from paper PMC4539046 (Neuropharmacology, 2015) can be followed below.

Where no end group is shown, it is not given here.

What all share (experiment): AlphaScreen or HTRF
Background: Bead proximity is the source of the signal in Alpha formats.

The target in one assay is His-PSD95(1–392) (UniProt P31016 1-392).
In assay [1] the target is T1, GST-PSD95(1–392) (UniProt P31016 1-392).
The target in assay [2] is T1, GST-PSD95(1–392). This is another data set of the same source.

On to SLKPGTVLPPPPYRHRNTVV (peptide, UniProt Q15303 1289-1308, looked up, not fully specified (N-terminus); also: biotin (position not given here)) [Biot-ErbB4(1289–1308)], for which, in the assay with His-PSD95(1–392), a half-maximal response (EC50) required 10 nM. In other words, the double-digit nanomolar range.

B1: nNOS(1–130) without any tag (domain or fragment, UniProt P29476-1 1-130, looked up)
chain: MEENTFGVQQIQPNVISVRLFKRKVGGLGFLVKERVSKPPVIISDLIRGGAAEQSGLIQAGDIILAVNDRPLVDLSYDSALEVLRGIASETHVVLILRGPEGFTTHLETTFTGDGTPKTIRVTQPLGPPT
Take B1: in the assay with GST-PSD95(1–392) [1], it took 30 nM to reach half-maximal inhibition (IC50).

B2: His-nNOS(1–299) (domain or fragment, UniProt P29476-1 1-299, looked up)
chain: MEENTFGVQQIQPNVISVRLFKRKVGGLGFLVKERVSKPPVIISDLIRGGAAEQSGLIQAGDIILAVNDRPLVDLSYDSALEVLRGIASETHVVLILRGPEGFTTHLETTFTGDGTPKTIRVTQPLGPPTKAVDLSHQPSASKDQSLAVDRVTGLGNGPQHAQGHGQGAGSVSQANGVAIDPTMKSTKANLQDIGEHDELLKEIEPVLSILNSGSKATNRGGPAKAEMKDTGIQVDRDLDGKSHKAPPLGGDNDRVFNDLWGKDNVPVILNNPYSEKEQSPTSGKQSPTKNGSPSRCPR
In the case of B2, in the assay with GST-PSD95(1–392) [2], the EC50 (commonly the concentration at which the effect is half-maximal) came to 30 nM.
